According to patent US20200345845A1 (RUBIUS THERAPEUTICS, published 2020):

Experiments:
CD20 (human) [1] = biological target: CD20 (human) (UniProt P11836); assay: cell-based or functional assay
CD20 (human) [2] = biological target: CD20 (human) (UniProt P11836); assay: flow cytometry, RCT binding to Z138 cells
CD20 (human) [3] = biological target: CD20 (human) (UniProt P11836); assay: flow cytometry, RCT binding to Toledo cells
CD20 (human) [4] = biological target: CD20 (human) (UniProt P11836); assay: flow cytometry, RCT binding to SU-DHL4 cells
CD20 (human) [5] = biological target: CD20 (human) (UniProt P11836); assay: flow cytometry, RCT binding to Granta-519 cells
PD-1 = PD-1 (UniProt Q15116); assay: cell-based or functional assay
Sequence of PD-1 (Q15116 25-288 limits assumed): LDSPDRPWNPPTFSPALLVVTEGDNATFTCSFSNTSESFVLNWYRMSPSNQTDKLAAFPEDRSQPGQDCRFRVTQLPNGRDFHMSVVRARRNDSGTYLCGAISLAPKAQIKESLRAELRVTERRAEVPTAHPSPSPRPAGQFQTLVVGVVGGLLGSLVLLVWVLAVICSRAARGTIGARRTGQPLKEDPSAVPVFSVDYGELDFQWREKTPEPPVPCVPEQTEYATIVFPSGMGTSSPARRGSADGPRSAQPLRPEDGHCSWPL

CD20 = biological target: T1, CD20 (human, UniProt P11836 1-297); assay: immunofluorescence of co-culture with Ramos cells
T1 construct: whole, on cells; Endogenous CD20 on lymphoma cell lines; also called CD20 on CD20-expressing cell lines (Raji, Ramos, Z138, Granta-519, Toledo, SU-DHL4, DOHH-2)
T1 sequence (looked up): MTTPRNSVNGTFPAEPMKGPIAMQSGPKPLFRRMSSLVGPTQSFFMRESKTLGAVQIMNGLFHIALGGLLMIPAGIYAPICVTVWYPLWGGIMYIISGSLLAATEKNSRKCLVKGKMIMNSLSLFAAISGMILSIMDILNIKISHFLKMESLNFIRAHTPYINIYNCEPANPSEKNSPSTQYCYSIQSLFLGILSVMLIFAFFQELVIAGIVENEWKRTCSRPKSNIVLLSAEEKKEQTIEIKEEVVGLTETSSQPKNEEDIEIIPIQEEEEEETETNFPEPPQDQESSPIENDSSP

RCT-antiCD20: enucleated erythroid cells expressing on their surface a fusion protein of a rituximab CD20 scFv domain, an HA epitope tag and full-length GPA
apoptosis of Ramos cells after 48 hours of co-culture (CD20 (human) [1]): 32% | Percent cells bound (CD20 (human) [2]): 43.7% | Percent cells bound (CD20 (human) [3]): 37.1% | Percent cells bound (CD20 (human) [4]): 91.3% | Percent cells bound (CD20 (human) [5]): 76%

RCT-antiPD1: enucleated erythroid cells expressing a fusion protein of a pembrolizumab-based anti-PD-1 scFv domain, an epitope tag (HA or Flag) and full-length GPA
interferon-gamma secretion of PBMC in an antigen recall assay (PD-1): 3 to 4 fold

B1: RCT-HA-GPA: control enucleated erythroid cells expressing on their surface the HA epitope tag fused to the N terminus of full-length GPA (other, not shown: small tags and cut ends)
chain: LSTTEVAMHTSTSSSVTKSYISSQTNDTHKRDTYAATPRAHEVSEISVRTVYPPEEETGERVQLAHHFSEPEITLIIFGVMAGVIGTILLISYGIRRLIKKSPSDVKPLPSPDTDVPLSSVEIENPETSDQ
notes: also called HA-GPA control RCT; control RCT-HA-GPA
binding result (CD20): no binding
